From patent publication US20140255415A1 (Novartis, published 2014)

How the values were obtained:
Unrelated Fc = assay: ELISA, Fc fusion captured via goat anti-human IgG Fc, Fab detected with AP-conjugated secondary and AttoPhos
[1] = target: T1, human LINGO-1-Fc fusion protein (natleader-hsLINGO-1-Fc) (human, UniProt Q96FE5 42-556); assay: as above
T1 construct: also called human recombinant LINGO-1-Fc; captured human LINGO-1-Fc; not shown: protein lette
T1 sequence: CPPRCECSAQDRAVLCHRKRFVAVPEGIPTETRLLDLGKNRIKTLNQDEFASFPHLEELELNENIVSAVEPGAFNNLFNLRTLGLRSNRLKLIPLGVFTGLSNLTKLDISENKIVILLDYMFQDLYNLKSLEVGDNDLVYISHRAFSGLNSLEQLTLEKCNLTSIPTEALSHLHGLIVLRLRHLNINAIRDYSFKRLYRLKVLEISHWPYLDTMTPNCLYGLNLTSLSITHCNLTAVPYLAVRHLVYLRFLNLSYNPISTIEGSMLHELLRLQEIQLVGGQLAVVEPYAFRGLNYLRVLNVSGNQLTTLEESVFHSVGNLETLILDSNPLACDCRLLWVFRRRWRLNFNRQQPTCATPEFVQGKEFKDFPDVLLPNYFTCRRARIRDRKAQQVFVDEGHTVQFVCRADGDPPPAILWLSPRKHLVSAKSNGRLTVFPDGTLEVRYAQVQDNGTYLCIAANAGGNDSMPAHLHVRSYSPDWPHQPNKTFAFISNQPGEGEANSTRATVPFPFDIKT

[2] = target: T2, human NgR-Fc fusion protein (R&D Systems) (human, UniProt Q9BZR6 27-447, limits assumed); assay: as above
T2 construct: Commercial protein; also called captured human NgR-Fc; not shown: Fc part of the commercial fusion protein; not described
T2 sequence (looked up): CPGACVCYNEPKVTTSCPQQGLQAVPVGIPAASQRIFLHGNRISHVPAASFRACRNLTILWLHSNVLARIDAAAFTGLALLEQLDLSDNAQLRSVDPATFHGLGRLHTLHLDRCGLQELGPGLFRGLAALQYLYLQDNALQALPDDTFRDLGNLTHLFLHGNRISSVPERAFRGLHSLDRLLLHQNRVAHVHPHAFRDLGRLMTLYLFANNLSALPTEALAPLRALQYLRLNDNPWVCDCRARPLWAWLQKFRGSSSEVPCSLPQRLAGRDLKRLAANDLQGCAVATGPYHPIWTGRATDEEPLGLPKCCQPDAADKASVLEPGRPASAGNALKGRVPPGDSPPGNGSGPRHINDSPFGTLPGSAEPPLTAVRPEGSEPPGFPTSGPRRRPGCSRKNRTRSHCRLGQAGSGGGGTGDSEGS

[3] = target: T3, human LINGO-1-ΔLRR-Fc (Igleader-hsLINGO-1-ΔLRR-Fc) (human, UniProt Q96FE5 40-556); assay: as above
T3 construct: Heterologous secretion signal left out; also called human LINGO-1 lacking the LRR domain
T3 sequence: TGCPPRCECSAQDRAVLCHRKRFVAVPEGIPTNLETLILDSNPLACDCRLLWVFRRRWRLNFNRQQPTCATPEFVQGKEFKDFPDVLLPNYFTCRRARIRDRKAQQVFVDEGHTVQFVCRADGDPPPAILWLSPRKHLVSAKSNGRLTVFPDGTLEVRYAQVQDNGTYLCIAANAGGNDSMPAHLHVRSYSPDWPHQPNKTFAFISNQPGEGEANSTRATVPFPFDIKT

[4] = target: human LINGO-1 expressed on CHO-K1 cells (CHO-K1-hLINGO-1) (human) (UniProt Q96FE5); assay: apparent KD, FACS saturation binding on CHO-K1-hLINGO-1 cells, Fab format
[5] = target: T4, cynomolgus monkey LINGO-1 expressed on CHO-K1 cells (CHO-K1-cmLINGO-1) (cynomolgus monkey, UniProt Q9N008 34-614); assay: apparent KD, FACS saturation binding on CHO-K1-cmLINGO-1 cells, Fab format
T4 construct: range 34-614; also called Cynomolgus LINGO-1; not shown: 2 amino acid residue linker
T4 sequence (looked up): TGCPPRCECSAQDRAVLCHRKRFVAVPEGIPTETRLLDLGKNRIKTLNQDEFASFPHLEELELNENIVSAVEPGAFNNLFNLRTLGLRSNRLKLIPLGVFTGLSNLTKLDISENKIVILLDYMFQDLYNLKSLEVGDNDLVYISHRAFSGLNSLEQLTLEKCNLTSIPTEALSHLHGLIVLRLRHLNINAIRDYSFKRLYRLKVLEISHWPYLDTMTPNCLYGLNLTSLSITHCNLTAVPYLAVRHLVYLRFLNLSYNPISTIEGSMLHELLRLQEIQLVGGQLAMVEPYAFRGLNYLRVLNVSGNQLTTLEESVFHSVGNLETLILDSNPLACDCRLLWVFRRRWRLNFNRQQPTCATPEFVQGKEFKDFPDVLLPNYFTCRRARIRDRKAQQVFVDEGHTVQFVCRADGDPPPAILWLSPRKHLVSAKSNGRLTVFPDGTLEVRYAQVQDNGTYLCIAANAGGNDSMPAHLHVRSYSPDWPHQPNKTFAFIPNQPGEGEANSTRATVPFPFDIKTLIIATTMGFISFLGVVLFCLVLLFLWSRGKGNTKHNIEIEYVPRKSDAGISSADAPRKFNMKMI
Description: Cell based affinity of anti-LINGO-1 specific antibodies is determined by FACS saturation binding experiments. […] Otherwise the staining procedure is done identical to the FACS staining procedure described above.
In detail, CHO-K1-hLINGO-1, CHO-K1-cmLINGO-1 or CHO-K1-rLINGO-1 are detached from culture flasks by versene, washed with FACS buffer and resuspended in FACS buffer. Purified anti-LINGO-1 Fabs are serially diluted in FACS buffer and spread into round bottom 96-well microtiter plates (NUNC™, Wiesbaden, Germany). For each concentration, duplicate wells are incubated with 1.25×10⁴ cells for 30-60 min on ice in a total volume of 100 μl.

relative fluorescence units (RFU) (Unrelated Fc): 6 RFU
relative fluorescence units (RFU) [1]: 113 RFU
relative fluorescence units (RFU) [2]: 7 RFU
relative fluorescence units (RFU) [3]: 8 RFU
Kd [4]: 0.35 nM
Kd [5]: 0.26 nM
B1: anti-LINGO-1 Fab 4785 (Fab, V domains shown)
VH: QVQLQQSGPGLVKPSQTLSLTCAISGDSVSDNSAAWSWIRQSPGRGLEWLGLIYLRSKWDNDYAVSVKSRITINPDTSKNQFSLQLNSVTPEDTAVYYCARTGRADEFDVWGQGTLVTVSS
VL: DIVLTQPPSVSGAPGQRVTISCSGSSSNIGNNYVSWYQQLPGTAPKLLISRNSKRPSGVPDRFSGSKSGTSASLAITGLQSEDEADYYCSTYDTFSIVFGGGTKLTVLG
